# Assay results published in the supplement of paper PMC10567573.
# B1: POLD2 addY (peptide)
# chain: CQPISFSGFGAEDDDLGGLGLGPY
# B2: TRPA1 addY (peptide)
# chain: EQRNSRWNTVLRAVKAKTHHLEPY
# B3: SNF8 addY (peptide)
# chain: LPALFTDLYSQEITAEEAREALPY
# B4: BEX2 addY (peptide)
# chain: HSLRAVSTDPPHHDHHDEFCLMPY
# B5: PSMB5 addY (peptide)
# chain: DGWIRVSSDNVADLHEKYSGSTPY
# Test: protein stability index of a GFP-peptide fusion (GPS, HEK-293T) (PSI 1-6); higher = more stable
# Conditions: c terminus: native
# 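Note: lentivirally expressed fusion library, cells FACS-sorted into six equal-sized GFP/DsRed ratio bins, PSI computed from sequencing read fractions per bin weighted by bin number.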
protein,measurement,setting,value
B1,protein stability index,parent: NP_006221.1,2.32
B2,protein stability index,parent: NP_015628.1,4.2
B3,protein stability index,parent: NP_009172.2,4.33
B4,protein stability index,parent: NP_116010.1,3.52
B5,protein stability index,parent: NP_002788.1,3.43
